# Reference: PMC3390244
# Target: human transferrin receptor (hTfR, CD71) (human, UniProt P02786 89-760)
# Assay: filter binding
# Sequence of human transferrin receptor (hTfR, CD71) (P02786 89-760): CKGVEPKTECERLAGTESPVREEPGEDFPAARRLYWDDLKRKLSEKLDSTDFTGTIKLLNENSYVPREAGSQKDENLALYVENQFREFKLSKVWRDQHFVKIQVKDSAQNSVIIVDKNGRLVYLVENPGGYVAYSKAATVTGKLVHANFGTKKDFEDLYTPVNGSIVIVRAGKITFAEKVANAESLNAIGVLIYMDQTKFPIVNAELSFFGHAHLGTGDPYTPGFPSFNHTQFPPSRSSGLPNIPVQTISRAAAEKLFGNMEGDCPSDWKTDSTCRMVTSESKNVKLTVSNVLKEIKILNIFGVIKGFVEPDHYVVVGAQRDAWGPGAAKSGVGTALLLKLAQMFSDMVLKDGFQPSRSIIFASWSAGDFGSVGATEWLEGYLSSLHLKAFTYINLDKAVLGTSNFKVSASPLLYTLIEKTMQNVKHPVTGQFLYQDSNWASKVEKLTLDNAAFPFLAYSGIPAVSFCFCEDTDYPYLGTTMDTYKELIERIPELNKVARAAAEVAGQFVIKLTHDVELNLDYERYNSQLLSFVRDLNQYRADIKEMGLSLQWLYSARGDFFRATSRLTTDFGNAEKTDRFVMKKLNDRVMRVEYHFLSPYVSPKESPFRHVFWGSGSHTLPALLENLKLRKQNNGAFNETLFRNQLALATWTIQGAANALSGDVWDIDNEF
binder,measurement,value
"GGGGGAUCAAUCCAAGGGACCCGGAAACGCUCCCUUACACCCC (structured_RNA, 2'-fluoro C and U; 3' inverted dT; 5' thiol) [c2.min]",Kd,0.102 µM
